Measurements taken from the supplement of paper PMC10065799, “High-throughput profiling of sequence recognition by tyrosine kinases and SH2 domains using bacterial peptide display” (eLife, 2023).

Tests used:
c-Abl (mouse) = experiment: phosphorylation enrichment, bacterial display (enrichment ratio); higher = better substrate or ligand; peptides without Tyr show the background
FGFR1 = FGFR1 (UniProt P11362); experiment: as above
Hck = Hck (UniProt P08631); experiment: as above
AncSZ = experiment: as above
Fyn = Fyn (UniProt P06241); experiment: as above
EPHB2 = EPHB2 (UniProt P29323); experiment: as above
Sequence of EPHB2 (P29323 whole entry, looked up): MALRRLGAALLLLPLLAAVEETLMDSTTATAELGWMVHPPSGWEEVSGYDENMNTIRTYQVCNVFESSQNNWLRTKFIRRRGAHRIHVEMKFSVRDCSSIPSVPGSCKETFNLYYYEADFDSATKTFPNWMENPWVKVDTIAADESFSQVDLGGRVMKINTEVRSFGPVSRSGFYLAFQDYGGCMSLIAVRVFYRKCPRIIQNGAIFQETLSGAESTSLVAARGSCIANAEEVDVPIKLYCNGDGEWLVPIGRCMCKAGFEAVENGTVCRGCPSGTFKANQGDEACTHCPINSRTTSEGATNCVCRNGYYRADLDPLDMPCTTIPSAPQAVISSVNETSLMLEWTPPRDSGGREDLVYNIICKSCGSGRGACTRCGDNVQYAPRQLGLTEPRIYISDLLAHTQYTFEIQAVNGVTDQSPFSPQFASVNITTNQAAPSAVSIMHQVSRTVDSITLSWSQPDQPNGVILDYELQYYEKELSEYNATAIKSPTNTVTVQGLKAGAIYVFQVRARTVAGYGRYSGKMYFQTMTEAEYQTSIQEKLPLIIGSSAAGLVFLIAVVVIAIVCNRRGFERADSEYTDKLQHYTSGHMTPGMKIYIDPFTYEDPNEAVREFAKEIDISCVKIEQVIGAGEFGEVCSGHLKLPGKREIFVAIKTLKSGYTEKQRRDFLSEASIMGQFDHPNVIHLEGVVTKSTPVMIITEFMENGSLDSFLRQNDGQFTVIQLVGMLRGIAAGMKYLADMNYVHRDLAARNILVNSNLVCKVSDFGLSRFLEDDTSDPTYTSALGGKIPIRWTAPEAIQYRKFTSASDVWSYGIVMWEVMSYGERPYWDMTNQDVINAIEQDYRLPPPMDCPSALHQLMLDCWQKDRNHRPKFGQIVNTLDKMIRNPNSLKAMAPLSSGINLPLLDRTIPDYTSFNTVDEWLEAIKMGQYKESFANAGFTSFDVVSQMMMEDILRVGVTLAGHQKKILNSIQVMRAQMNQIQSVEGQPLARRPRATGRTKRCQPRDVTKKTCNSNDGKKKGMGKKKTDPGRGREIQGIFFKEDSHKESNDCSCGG

Fer (mouse) = experiment: as above
Jak2 = Jak2 (UniProt O60674); experiment: as above
EPHB1 = EPHB1 (UniProt P54762); experiment: as above
Sequence of EPHB1 (P54762 whole entry, looked up): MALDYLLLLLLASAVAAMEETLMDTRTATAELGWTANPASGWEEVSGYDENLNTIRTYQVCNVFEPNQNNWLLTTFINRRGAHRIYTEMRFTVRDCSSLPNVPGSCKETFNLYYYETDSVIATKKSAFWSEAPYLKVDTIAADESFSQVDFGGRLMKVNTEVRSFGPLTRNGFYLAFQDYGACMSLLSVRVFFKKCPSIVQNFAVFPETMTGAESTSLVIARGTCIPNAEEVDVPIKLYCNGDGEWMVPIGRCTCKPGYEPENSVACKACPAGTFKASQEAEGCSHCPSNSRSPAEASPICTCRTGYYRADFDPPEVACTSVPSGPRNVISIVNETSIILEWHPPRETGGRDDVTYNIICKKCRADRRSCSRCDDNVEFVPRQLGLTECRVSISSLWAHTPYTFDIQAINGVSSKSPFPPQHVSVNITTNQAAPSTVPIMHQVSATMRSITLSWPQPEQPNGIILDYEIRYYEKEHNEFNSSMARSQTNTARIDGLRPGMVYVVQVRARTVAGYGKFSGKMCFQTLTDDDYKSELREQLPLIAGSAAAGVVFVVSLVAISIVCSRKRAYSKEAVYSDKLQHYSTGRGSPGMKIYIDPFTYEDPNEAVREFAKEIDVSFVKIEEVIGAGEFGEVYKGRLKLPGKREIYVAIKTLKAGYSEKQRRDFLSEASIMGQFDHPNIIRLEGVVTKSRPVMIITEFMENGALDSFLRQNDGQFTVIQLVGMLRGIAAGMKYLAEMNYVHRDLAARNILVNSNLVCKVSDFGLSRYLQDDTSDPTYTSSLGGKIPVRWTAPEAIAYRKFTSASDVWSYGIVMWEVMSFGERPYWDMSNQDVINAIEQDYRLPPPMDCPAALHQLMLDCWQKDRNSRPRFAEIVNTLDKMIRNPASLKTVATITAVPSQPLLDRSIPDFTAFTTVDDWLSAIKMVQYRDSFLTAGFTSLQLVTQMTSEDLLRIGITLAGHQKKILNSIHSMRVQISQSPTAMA

MERTK = MERTK (UniProt Q12866); experiment: as above
c-Src = experiment: as above
Fes = Fes (UniProt P07332); experiment: as above
Sequence of Fes (P07332 whole entry, looked up): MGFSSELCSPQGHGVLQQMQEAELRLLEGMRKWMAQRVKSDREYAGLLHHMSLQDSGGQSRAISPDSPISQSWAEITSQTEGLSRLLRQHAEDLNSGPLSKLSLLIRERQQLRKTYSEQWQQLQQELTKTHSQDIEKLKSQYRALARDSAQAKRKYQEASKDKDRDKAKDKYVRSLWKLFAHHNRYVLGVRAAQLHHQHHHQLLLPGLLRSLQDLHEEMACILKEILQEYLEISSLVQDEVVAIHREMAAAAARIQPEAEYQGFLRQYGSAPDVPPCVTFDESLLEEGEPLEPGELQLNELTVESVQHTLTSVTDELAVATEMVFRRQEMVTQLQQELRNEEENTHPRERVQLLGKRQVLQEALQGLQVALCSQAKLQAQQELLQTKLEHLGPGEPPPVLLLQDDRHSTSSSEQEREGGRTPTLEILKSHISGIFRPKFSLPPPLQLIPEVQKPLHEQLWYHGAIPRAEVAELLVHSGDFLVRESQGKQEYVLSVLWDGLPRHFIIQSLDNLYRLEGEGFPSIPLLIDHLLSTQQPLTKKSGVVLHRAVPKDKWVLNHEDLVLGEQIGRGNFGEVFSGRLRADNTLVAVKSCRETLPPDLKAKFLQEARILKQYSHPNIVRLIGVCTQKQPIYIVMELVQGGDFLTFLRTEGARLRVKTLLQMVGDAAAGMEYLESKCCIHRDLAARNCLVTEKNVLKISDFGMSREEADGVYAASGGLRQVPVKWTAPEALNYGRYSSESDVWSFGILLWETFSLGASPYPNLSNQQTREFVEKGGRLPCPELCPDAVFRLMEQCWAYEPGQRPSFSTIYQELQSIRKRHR

FGFR3 = FGFR3 (UniProt P22607); experiment: as above
Sequence of FGFR3 (P22607 whole entry, looked up): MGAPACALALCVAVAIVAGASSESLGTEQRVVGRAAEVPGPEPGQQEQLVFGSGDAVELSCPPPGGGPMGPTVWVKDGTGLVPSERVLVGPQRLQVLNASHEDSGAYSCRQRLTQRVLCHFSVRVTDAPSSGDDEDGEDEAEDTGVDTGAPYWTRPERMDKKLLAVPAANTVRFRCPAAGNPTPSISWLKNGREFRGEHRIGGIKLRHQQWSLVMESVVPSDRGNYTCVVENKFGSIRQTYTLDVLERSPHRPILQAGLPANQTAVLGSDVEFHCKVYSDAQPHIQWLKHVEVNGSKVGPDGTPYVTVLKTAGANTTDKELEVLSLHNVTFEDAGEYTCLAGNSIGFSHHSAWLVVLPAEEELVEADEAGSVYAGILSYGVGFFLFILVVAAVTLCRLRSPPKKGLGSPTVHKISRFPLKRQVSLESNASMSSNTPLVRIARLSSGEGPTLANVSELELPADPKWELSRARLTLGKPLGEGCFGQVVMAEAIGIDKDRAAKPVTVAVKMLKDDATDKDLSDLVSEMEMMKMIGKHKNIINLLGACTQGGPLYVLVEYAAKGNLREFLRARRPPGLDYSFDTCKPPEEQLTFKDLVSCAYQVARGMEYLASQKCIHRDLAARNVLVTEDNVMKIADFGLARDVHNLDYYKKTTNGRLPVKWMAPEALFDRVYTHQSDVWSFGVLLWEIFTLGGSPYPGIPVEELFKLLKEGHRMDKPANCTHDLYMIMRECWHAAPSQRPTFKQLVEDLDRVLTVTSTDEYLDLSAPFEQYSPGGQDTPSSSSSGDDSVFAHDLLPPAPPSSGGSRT

Grb2 SH2 = Grb2 SH2 (UniProt P62993); experiment: SH2 binding enrichment of the phosphorylated peptide, bacterial display (enrichment ratio); higher = better substrate or ligand; peptides without Tyr show the background
SHP2-C SH2 = experiment: as above
c-Src SH2 = experiment: as above
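Wherever SH2 binding enrichment of the phosphorylated peptide, bacterial display is given: peptide library displayed on the E. coli surface as eCPX fusions, selected cells deep-sequenced, score is each peptide's frequency after selection divided by its frequency in the input.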
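Wherever phosphorylation enrichment, bacterial display is given: 11-residue human phosphosite peptides and single-mutation variants displayed on the E. coli surface, counted by deep sequencing, each peptide's frequency after selection divided by its frequency in the unselected input library; frequency after pTyr selection over input frequency; kinase dosed for 20-30% of maximal phosphorylation in three min.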

Sequence of Hck (P08631 whole entry, looked up): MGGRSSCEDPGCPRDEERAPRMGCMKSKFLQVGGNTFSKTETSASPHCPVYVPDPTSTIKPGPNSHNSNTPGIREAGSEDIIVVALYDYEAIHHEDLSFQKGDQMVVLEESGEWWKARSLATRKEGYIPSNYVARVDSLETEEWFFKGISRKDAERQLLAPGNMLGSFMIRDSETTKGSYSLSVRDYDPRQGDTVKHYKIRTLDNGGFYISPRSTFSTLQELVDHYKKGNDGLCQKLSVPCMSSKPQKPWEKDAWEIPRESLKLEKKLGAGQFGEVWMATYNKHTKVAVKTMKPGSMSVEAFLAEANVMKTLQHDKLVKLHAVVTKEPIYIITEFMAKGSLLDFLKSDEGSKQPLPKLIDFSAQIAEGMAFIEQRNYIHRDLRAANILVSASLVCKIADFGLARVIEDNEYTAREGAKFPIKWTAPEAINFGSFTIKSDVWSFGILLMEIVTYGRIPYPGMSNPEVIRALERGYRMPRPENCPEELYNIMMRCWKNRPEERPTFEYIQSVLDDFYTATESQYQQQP
Sequence of FGFR1 (P11362 whole entry, looked up): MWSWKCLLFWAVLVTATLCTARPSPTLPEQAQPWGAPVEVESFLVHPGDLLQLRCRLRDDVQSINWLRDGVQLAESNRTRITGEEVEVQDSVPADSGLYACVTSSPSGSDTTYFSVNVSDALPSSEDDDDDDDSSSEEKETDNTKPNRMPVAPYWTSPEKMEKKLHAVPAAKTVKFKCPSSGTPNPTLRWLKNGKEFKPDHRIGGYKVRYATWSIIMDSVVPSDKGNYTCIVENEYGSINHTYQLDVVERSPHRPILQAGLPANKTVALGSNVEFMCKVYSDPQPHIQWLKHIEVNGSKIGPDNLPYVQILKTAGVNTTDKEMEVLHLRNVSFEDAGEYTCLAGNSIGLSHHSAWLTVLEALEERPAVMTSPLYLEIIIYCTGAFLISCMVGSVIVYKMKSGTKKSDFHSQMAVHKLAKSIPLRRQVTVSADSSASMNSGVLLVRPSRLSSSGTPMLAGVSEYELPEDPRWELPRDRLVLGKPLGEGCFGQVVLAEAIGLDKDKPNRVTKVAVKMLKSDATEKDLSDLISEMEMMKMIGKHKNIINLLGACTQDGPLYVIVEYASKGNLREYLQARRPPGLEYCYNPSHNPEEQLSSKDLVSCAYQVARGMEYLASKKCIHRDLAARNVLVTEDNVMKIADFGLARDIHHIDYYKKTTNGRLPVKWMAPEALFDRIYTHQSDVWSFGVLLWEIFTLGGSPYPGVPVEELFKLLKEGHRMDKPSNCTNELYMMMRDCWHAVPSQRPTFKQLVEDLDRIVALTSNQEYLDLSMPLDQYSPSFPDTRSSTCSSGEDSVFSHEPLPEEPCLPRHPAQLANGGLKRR

Sequence	phosphorylation enrichment (c-Abl (mouse))	phosphorylation enrichment (FGFR1)	phosphorylation enrichment (Hck)	phosphorylation enrichment (AncSZ)	phosphorylation enrichment (Fyn)	phosphorylation enrichment (EPHB2)	phosphorylation enrichment (Fer (mouse))	phosphorylation enrichment (Jak2)	phosphorylation enrichment (EPHB1)	phosphorylation enrichment (MERTK)	phosphorylation enrichment (c-Src)	phosphorylation enrichment (Fes)	phosphorylation enrichment (FGFR3)	SH2 binding enrichment (Grb2 SH2)	SH2 binding enrichment (SHP2-C SH2)	SH2 binding enrichment (c-Src SH2)
LSTPEYGPKLK [TBC1D14_Y46_A43T]	0.57	0.465	0.417	0.673	0.527	0.496	0.461	0.569	0.47	0.532	0.494	0.574	0.506	0.796	0.733	0.445
LTAEVYFPSIK [C5orf64_Y60]	1.64	0.866	1.06	1.78	1.02	0.906	0.963	0.996	0.966	0.648	0.75	2.04	1.88	0.763	0.708	0.453
LTERDYSFVTT [ACTG2_Y199_G198D]	0.888	7.67	1.62	2.56	1.93	3.51	2.82	1.27	2.38	1.26	0.977	1.6	4.74	0.792	1.37	0.678
LTRDIYKNDYY [ROS1_Y2110_A2106T]	1.21	5.83	1.48	2.28	1.82	2.79	1	2.28	2.15	0.839	2.86	1.88	3.61	1.35	0.906	1.53
LVQAEYWHDPI [PPT1_Y185]	1.36	3.89	0.593	1.48	0.58	0.487	0.644	1.18	0.677	0.591	0.61	1.48	2.98	0.824	0.638	1.11
LVRPPYSFSAL [FOXI1_Y126_YF]	0.465	0.395	0.423	0.602	0.419	0.46	0.479	0.553	0.385	0.363	0.409	0.618	0.434	0.809	0.562	0.478
LVRPPYSYSAL [FOXI1_Y126]	0.641	0.572	0.528	0.952	0.722	0.568	0.619	1.03	1.07	2.06	0.704	0.862	0.713	0.885	1.72	1.8
LWQTIYNLEAE [TNNT2_Y251_S249T]	1.21	1.15	5.88	1.56	10.9	0.894	0.855	1.73	1.3	0.735	8.82	2.22	1.13	1.03	0.773	0.823
MCTVDYLLRLQ [RYR1_Y3921_I3916M]	0.866	0.526	0.529	1.07	0.546	0.62	0.504	1.19	0.597	0.516	0.487	1.35	0.684	0.84	0.765	0.523
MDDDQYALLTA [EFCAB6_Y675_T680A]	0.871	1.21	0.77	1.35	0.647	0.722	0.665	1.15	0.547	0.592	0.608	1.35	1.2	0.761	0.702	0.689
MENFIYESMQF [CYP19A1_Y361_R365Q_YF]	4.06	0.888	7.84	1.81	9.33	5.77	16.1	1.04	8.07	6.46	7.14	6.34	0.759	0.679	0.691	0.448
MENFIYESMQY [CYP19A1_Y361_R365Q]	1.24	0.652	7.07	1.37	9.05	5.02	13.3	0.894	7.15	3.64	6.84	3.36	0.724	0.914	0.954	0.786
MEVEQYIFVKC [CYBB_Y324_G322E]	1.04	1.98	0.71	1.74	0.575	0.868	0.679	1.53	1.03	0.509	0.594	1.64	1.99	0.725	0.599	0.513
MHDKEYYSVHN [MET_Y1234_Y1230H]	0.479	3.36	0.459	0.78	0.488	0.497	0.411	0.807	0.53	0.496	0.61	0.748	2.08	0.827	0.423	0.513
